The results in this text go back to patent US20070134693A1 (published 2007).

For this assay, the target named is T1, M-tropic HIV-1MN envelope glycoprotein gp120 (HIV-1 MN, UniProt P05877 32-513).
T1 construct: also called HIV-1 gp120; HIV-MN gp120
The assay can be described thus: fluorescent bead adhesion assay on K562-DC-SIGN cells.

B1: DC-SIGN (receptor)
chain: MSDSKEPRLQQLGLLEEEQLRGLGFRQTRGYKSLAGCLGHGPLVLQLLSFTLLAGLLVQVSKVPSSISQEQSRQDAIYQNLTQLKAAVGELSEKSKLQEIYQELTQLKAAVGELPEKSKLQEIYQELTRLKAAVGELPEKSKLQEIYQELTWLKAAVGELPEKSKMQEIYQELTRLKAAVGELPEKSKQQEIYQELTRLKAAVGELPEKSKQQEIYQELTRLKAAVGELPEKSKQQEIYQELTQLKAAVERLCHPCPWEWTFFQGNCYFMSNSQRNWHDSITACKEVGAQLVVIKSAEEQNFLQLQSSRSNRFTWMGLSDLNQEGTWQWVDGSPLLPSFKQYWNRGEPNNVGEEDCAEFSGNGWNDDKCNLAKFWICKKSAASCSRDEEQFLSPAPATPNPPPA
notes: whole, on cells; also called K562-DC-SIGN; THP-1-DC-SIGN
On to B1, for which the binding result is “binds”.
